The nature of the data set: label from the status in PepcDB records.
As for “MIDMFPMEKGEEQETYELIVRVFHKYVAPVYSENGVARFLGMLSPEGLSEMNNGKNSFVIVARDQSKIIGMISVINDSHIALFFVSPRYQGKGIGKNILDEAIKNCLNRNPELSAVTVSSSPNSKSFYEEAGFEVIGLEHHHHHH”, the protein production result was “not failed”.
With “MIDNENNVNEPAEEESFAELFEKSNRRTERLRPGSKVDARVLKIGAEWVFLDIGSKGEGVMERKELLDKDGNLTVAEGDTIPVWFVKVERNEMRFTTKVGTGQAGLSALEDAYRAGIPVEGNVEKEIKGGFEIKVGGTVRAFCPYSQISLRRAANPAEFVGRQLLFKVVEFAERGRNIVLSHRAILEEEERQKREALKDTLKEGTTLTGTVTRLMPFGAFVDIGGVEGLIPISEAGWSRVKEIGDVLSVGEQVTALVKRIDWENNKISLSLRDVQADPWEGIAERFPEGSYHTGTVARLAPFGAFVTLAPGIDGLIHISKLGAGKRIAHPREVLKEGDAVEVTVEGVDRESRRLSLALAATKRAAEEEERSIAEFRGKGAAQTKDSMGTFGDILKAQLDDKK”, the protein production entry was “failed”.
The entry for “MIDSIRVEGFRGLKELELSSLRRINVIVGRNNSGKSTLLEALSLFLGSSDPGTFGNVLHEILIWRGWYGIQTVDDLFYNGGDSFSISSTGKTLEALNSKHSLEFKLNGEPFYKIDRESIRRLASQAVLLARFSPKENFEFLTPLTFRRFGYAESLYSYAYERKVVKDSIKVLNEAYPEVEGFSPLLKEDNWVLYVETKYGVYPYYLMGEGFKSAMIISFLSSLLRDGVLLIDSAEAFHHPKSLKVMIQTLVRGSEKNNVQVFLTTHSLELLDLMLEMGRDGFVIYMKNVEGRIEVESIEFQRASELRESIGVDLRGFLEHHHHHH” is “not failed”; for “MIDVINNQAFHLHNDQISYICALLPNGQLGHLYFGPRLSLTKNDLAYLSQGSSPFAWMANFSDDQEFALGDAQQEYPVYGTGDFRQGSLSVTQDDMPIYPNFVFKDDQLTHTKTRDLHHPTSFGNPALTDVLTIHLEDKTAQLLLTLQYTIFADSAAIVRSATLTNQGTAPVMIQRMLSGVLNLPQGRYDVVHLSGNWAKERHIQTQPLTQGTFSVESLRGASSHEQNPFVALHAAGQPFAAGDTYGANLIYSGNFLDSTEVNEWDQTRLLTGIHPASFSWRLDPKTSFTTPETVFSYSSGGLAGLAQANQRFVARHIIDPQWRQKQRPVVLNSWEATYFDLNEKKLLKLAALGKQVGVDCFVLDDGWFGTRDNDLSSLGDWFTNKHKFPDGLGHFAQEIHAMGLQFGLWFEPEMVSPRSQFFQAHPNWVVRPKKGRISITRNQYVLDFSNPAVVNNIFEQMQKVITETNLDYVKWDLNRSITEAFSPYLEKIGHPQGEFFHRYVQGVYTLYQKLLTAFPHLLIEGCAGGGGRFDLGILFYSPQIWTSDDSDAIERLAIQSGMALAYPLSCMSNHVTAVPNEQVGRSTPLVTRFRVAAFGILGYELDLTKLDARTLATIKAQIAYYHALQPLVLKGDFSLLLPRQSNGQNQVAWLLSAHDRKHLVLGFFRVLADADSRTVQYMKVPLAKSDTPYWVNQHTGPISGDVLQRVGVRLPVQFNGANRAQAQLIGDYQSVLLTFDSVASLDHILEHHHHHH” it is “failed”.
For “MIEFVYPHTQLVAGVDEVGRGPLVGAVVTAAVILDPARPIAGLNDSKKLSEKRRLALYEEIKEKALSWSLGRAEPHEIDELNILHATMLAMQRAVAGLHIAPEYVLIDGNRCPKLPMPAMAVVKGDSRVPEISAASILAKVTRDAEMAALDIVFPQYGFAQHKGYPTAFHLEKLAEHGATEHHRRSFGPVKRALGLAS”, the protein production result is on record as “not failed”.
For the sequence “MIEINIQGSSSAGNNYLLADGNSSLMLEAGLKPKDIMKQGINFSNIQGLLVTHEHGDHSKYINDILLAGRFDVWASRGTLEGLGINRRSHILKANQQQKIGDWLVKPFATIHDDKKARAREPLGFLILSPSGKKIVFATDTNYLPKTFKDVTHWLVECNHDIKLVRQSKLPKSVQDRILRTHMSIDACKKFFQSTDLTKTEEIYLIHLSDKNSDPEKFKEEIEKITNKKIIIA”, the protein production entry is reported as “failed”.
The result for “MIEITFLGGGGGRFVTITQVRATGGFFIKASKNIYVDPGPGALVRMWRYKIDPRKVDVLFISHRHTDHCNDAEVLVEGMTYGVTKKRGTLIGSKSVVHGDENHTPALSKYHLDALEEVHAPNPGDRFKIGEDEMIITPSLHSDPTTIGFRLKTSYGDISYIPDTEYFEELVKWHDGARVIIAAVTRPRDMRIPFHLSSEDAVYLLKSMKQKPEVFIMTHAGMKMHFAGPYKEAQFIQNLTGVKTYVAKEGFKVSIGKEISVKTLRPARFVLEHHHHHH” reads “not failed”.
As for “MIELEGVPELVDPVMVAAFEGWNDAGDAASTAVAHLDREWKGEVFAALDAEDYYDFQVNRPTVFMEDGVRKITWPTTRLSVVRVGGDKPRDLVLVRGIEPSMRWRSFCNELLGFAHELGVELVVVLGALLGDTPHTRPVPISGTTSDADLARRMDLEETKYEGPTGIVGILQEACTHAGVPAVSLWAAVPHYVSQPPNPKATLALLNRLEDLIGVRVPLGELPEDARAWQVGVDQLAAEDTEVAEYVQSLEEARDTA”, the protein production result was “not failed”.
The entry for “MIELIDPISKQRLEESPEGLRNENGIVVYPLINGAYRVAASDNYTSNFGLEWNTFQKTQIDKFSGNTVSEERLFAQTNWQKNGLEGETILEVGSGAGRFSQIMLDHTKATLYSVDYSEAVEANYRNNGPHERFKLFQASIYELPFKQASFDRVICLGVLQHTPDFKASVKALVEMVKPGGELVIDFYPIRNVFTKVHGKYLLRPILKRVNHHRLMSLIRNNIDFLISIYTFNRRIGLGVFNRFVPICEIERTLPKGMTPEQLKEWIILDTFDMFSPEYDQPQRLSTVAKWVKEFGMADVDASWVTYHGKLEAPTVRGRKVLEHHHHHH” is “not failed”; for “MIEMAYDDDENSMAIKVWRLYVDLWKLWYKKNERNLNKIDLSITEFTIMRHLIENGPMSMAAIASLINVTPGWITGVVDKMEEKNLVTRNRDSTDRRIIKIAITDRGREVYENAKKNHYAFIRKALAELNENELQQTYVLLQKMMDDVSKLESN” it is “failed”; for “MIETTAALAEACTELAKSEFITIDTEFLRETTFWPELCLVQMASPTLEVLVDPLAKGIDLTPMFELMANPNVVKVFHAARQDIEIIYHLGGLIPHPIFDTQVAAMVCGFGDSISYDQLVQKIKNVQIDKSSRFTDWSRRPLTEKQLDYALADVTHLRDVYLSLKAQLEREGRSLWLTEEMNILESRDTYDMHPDDAWLRLKSRLRKPTELAILKFVAAWREREARSRNVPRSRVLKDDGIFEIAQQQPKDAEALSRLRTIPKGWERSASGTAIIETVNAALALPKEEMPKAPRHSHAPEGSGAAVELLKVLLKLTADKHGVAAKVIANSDDLDKIASEGENATVAALTGWRRELFGDVALKLINGEVALRFAGKKVEAVEVEAAASES” it is “failed”.
Take “MIEWQLAELIPHAGDMILIDQVLDFDEEQINTRLTVRADGLFNQPDGSLPAWLGIELMAQSVAAYAGCQARSKGEAVKLGFLLGSRKFDCNVARFPAGSELHIHAIRSLQDDSGMGVFECTLTGPDITALARLNVYCPPNTADYLAEGAPALEHHHHHH”: the protein production entry is “not failed”.
For “MIFLVYDILLLLLSPLILIHHAWRTVSRGRSFAGFGERFGCIAPESLARVAGKGPIWVHAVSVGETMAVKPLLRELKRRFPERPLVLSSVTETGRSVAVTIPEADLVVYFPFDFGFAVARALRLVAPSLVIVVETEIWPNFLRHARRTGIPSVMVNGRISDRSFPRYLRFSRFFAPILNNLSALCMQSSEDARRIIAVGAPAERVHVTRNLKYDLPVRSLTPAERQELLCSYRLPAGALIITAGSTHAGEEEVVADIYARLAGERSDLFLVLVPRHPERAVEVGTLLEGKGIPFVRRSALDKVQEQPRGGVLLVDTIGELMKLYALSDVVFVGGSLVPVGGHNLLEPASVGAPVLFGPHMHNFREITALVLGAGAGEQVNDHGELEATLRRLLADEPARRSMGENGIRLMADQGGAAARHLEIIGPLIERGSEVARLEHHHHHH”, the protein production entry is recorded as “not failed”.
As for “MIFMHPKTLEILKMFEEINKIPRRSKNEEKLALWLMEWAKNHNFEAKTDALNNVLIKVPPTPGYENSPAIVLQGHMDMVCEKCRDSGHDFSKDPIICIYEGDWLRGDGTSIGADNGIALAIGLVLAESGIKGEIEHPPLELLFTVDEETGLTGASGLEEDFFEGRILLNLDSEDEGIFILGCAGGQNSRIFLPLQWESFDYGKGSGFGLFRISAEGLEGGHSGVEIHRQRANGIQLLARMLSALKEKVGKENLRLVFFSGGSVHNAIPNYAEAFIVLSRNNEKQAEDFVSGLQKSFRGEYAVSDPEITLQLKEVENGIIFEASGGKITRKEVPSDRVFSVETEEKLYGVLLGMPHGVHRVSDTIPGLVETSNNLATVRTGEKEVRIVSSQRSSVMSRLAEVTEKVETVAKLAGARVEHECGYPAWEPDLQSGLLMKCRHAYSGTFGKEPEIKVVHAGLECGVIGSKCECIEMISFGPTIKDPHSPAERVYIPSIEKVWVFLENLMKSYRLEHHHHHH”, the protein production result is “not failed”.
The result for “MIGFLTDWGLKSHYVGVAKAVIKRINPSAEIIDITHEVEPFNVRKASHVLYRASLDFPPSTVFLVVVDYGVGTSRKAIVMKTKNDQYFVAPDNGVLTVVAEEYGVAEIREIENRELFYKKNPSFTFHGRDIFAPVAAHLDMGLPLERVGDRLLSYEVLKMRKPVVENEKVIGEVAIVDTFGNVSTNIPFDLFLKLSVDFDDVVRVRVGRKEFKAAVAKAFGDVDTGELLVHPDSAGFLEIAVNLGDASQVLSVKEGDEIEICR” reads “not failed”.
The entry for “MIGGSIISSNLLIRIFHGSCRKIIAFLFTILSLTLISGVLIYFVEGETGGFISRSSSVYWAITTLLTTGYGDTVLQTNFGRLVASVVKVLGFSIIVAPIVIIITEIYKSLSETSRKTKSLTISPFPLIWRYLNTQYFRML” is “failed”; for “MIGHRPLLAALERGHCASYTFVMKRRNFFRFSALGLLALAGGGLYARRSSASAYYSGPISDHFDGVRFFNPGGTPPGNFMGLLKWRFNGERATWPETYPSPFPFAKPEARIDGRDMRVTFVGHASFLIQTAGLNILVDPVWSQRTSPLSFAGPKRVNPPGIRFEDLPPIDLVLVTHNHYDHLDMETLKRLHVAHKPLFITPLGNDAVIRTGVEAARIKVGDWGDVVETGSVKIHFEPCHHWSARGLNDRSMALWAAFVIETPGGKIYHIGDTGFHEGLNYGAARKKHGEFRLANLPFGAYEPRWFMKGQHQNPAEAVEGMRLCGAAHVCGHHWGTVQLTDEAVDAPLAALKAALTEQGVEESRFRPMRPGEVFDVPSA” it is “failed”; for “MIGKTVIVGSKNMKEKILKFITSKFFVLGIQLLATIAVVYFTFKLDLVPTKYLIAGIVVLALLLAGFFGIIYSSEQKIKKGLSSKRGIVTKIISLLTSIILIAGCTYISRGNNFIENVSNATGQEYVVSVISLKNGKITKLKDLDSSKKIGVSYEKDTVTIAEALKDLDTEIGDHEYTKYDNYASLADALYEGKVDAIVVGEQYRTMLQTNHEEFNDVTKVLKSYAYDAKMEVTTKQTDVTENAFSIYVTGIDVYGSLKTVSRSDVNLIVTVNPKTKQILMTSIPRDCQINLHKNGKMDKLTHTGIYGTSETINTIQDLLEMKINYFARTNFSGMTNIVDALGGITVNSSEAFETLHGNYQISEGLNEMDGDKALCFVRERKRLKRGDFARGENQQKVLKAMLDKAMSPKIITNFNNILSAVEGCFETDMSDKEIKSLINMQLNDMADWKIINVQIEGEYQLMDDTFSMKGTNSDVMIPFESHIERVRELINKVEEGKEIKDSELKGLTH” it is “failed”.
The result for “MIGLSKSRGALSMENQKMPEYETIRAAVAGEKWAVEKVVECYKDEIDRLSTVAVRQPDGSTKQEINEDMRQSITKKLIEALPQFPLEEMEKGNVRLEHHHHHH” reads “not failed”.

The record behind these values is a protein production outcome set (Wang et al. 2014).
